In publication PMC12090727:

Each substance was assayed against HA-hFc probe: H1N1 A/California/04/2009 HA ectodomain fused to human IgG1 Fc (assay: flow cytometry on cells). Settings: parent: est. 1.0; read off a plot.

| Substance | ratio to parent |
| --- | --- |
| Flag-tagged fTfR-5J8 receptor, WT (Flag+) (from UniProt Q9MYZ3) R97A; P100aA; I93A | 0.42 |
| Flag-tagged fTfR-5J8 receptor, WT (Flag+) (from UniProt Q9MYZ3) D100bL | 0.28 |
| Flag-tagged fTfR-5J8 receptor, WT (Flag+) (from UniProt Q9MYZ3) N32A | 0.94 |
| Flag-tagged fTfR-5J8 receptor, WT (Flag+) (from UniProt Q9MYZ3) I93A | 0.98 |
| Flag-tagged fTfR-5J8 receptor, WT (Flag+) (from UniProt Q9MYZ3) I93D | 0.97 |
| Flag-tagged fTfR-5J8 receptor, WT (Flag+) (from UniProt Q9MYZ3) R97H | 0.84 |
